Reference: patent US20250074980A1 (BRIGHAM AND WOMEN S HOSPITAL, published 2025)

Columns and labels:
[1] = biological target: T1, CEACAM3 on transfected HeLa cells (human, UniProt P40198 35-252); assay: flow cytometry titration, HeLa-CEACAM3 transfectants, anti-human IgG4 FITC
T1 construct: whole, on cells; also called HeLa-CEACAM3; HeLa C3
T1 sequence (looked up): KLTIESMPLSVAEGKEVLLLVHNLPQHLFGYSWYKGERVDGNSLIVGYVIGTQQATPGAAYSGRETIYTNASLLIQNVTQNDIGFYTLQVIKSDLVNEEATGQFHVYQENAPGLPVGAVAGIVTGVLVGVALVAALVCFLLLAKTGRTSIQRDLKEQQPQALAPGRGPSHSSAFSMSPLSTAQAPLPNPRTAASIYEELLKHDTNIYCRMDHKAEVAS
Procedure: (§1) FIGS. 31A and 31B show flow cytometry analyses of stable HeLa CEACAM1 (HeLa C1) transfectant, stable HeLa CEACAM3 transfectant (HeLa C3), stable HeLa CEACAM5 transfectant (HeLa C5), stable HeLa CEACAM6 transfectant (HeLa C6), and stable HeLa CEACAM8 transfectant (HeLa C8). FIG. 31A: 5×10\hat{ }4 indicated HeLa transfectants were washed with staining buffer and CP08H03/Vκ8 S29A (labeled “CP08”, left) or CEACAM1 antibody CM-24 was incubated at room temperature for 30 min, washed twice with staining buffer, and stained for anti-human IgG4 Fluorescein isothiocyanate (FITC) conjugated secondary antibody at room temperature for 20 min. Fluorescence intensities were determined by flow cytometry. Live cells were determined by 4′,6-diamidino-2-phenylindole (DAPI) staining as shown on the y-axis. Staining with the respective CEACAM1 antibody is shown on the x-axis. […]
(§2) The cervical adenocarcinoma cell line HeLa (ATCC No CCL-2) as well as transfected cell lines HeLaCEACAM1, HeLaCEACAM3, HeLaCEACAM5, HeLaCEACAM6 and HeLaCEACAM8 used for flow cytometry experiments were cultured at 37° C., 5.0% CO₂ in Dulbecco's modified Eagle's medium supplemented with 10% fetal bovine serum, penicillin (100 U/ml) and dihydrostreptomycin (100 μg/ml). […] Data were acquired with a Cytoflex flow cytometer (Invitrogen) and analyzed with FlowJo software (TreeStar, V7.6.5 for Windows).

[2] = biological target: T2, CEACAM5 on transfected HeLa cells (human, UniProt P06731 35-685); assay: flow cytometry titration, HeLa-CEACAM5 transfectants, anti-human IgG4 FITC
T2 construct: whole, on cells; also called HeLa-CEACAM5; HeLa C5
T2 sequence (looked up): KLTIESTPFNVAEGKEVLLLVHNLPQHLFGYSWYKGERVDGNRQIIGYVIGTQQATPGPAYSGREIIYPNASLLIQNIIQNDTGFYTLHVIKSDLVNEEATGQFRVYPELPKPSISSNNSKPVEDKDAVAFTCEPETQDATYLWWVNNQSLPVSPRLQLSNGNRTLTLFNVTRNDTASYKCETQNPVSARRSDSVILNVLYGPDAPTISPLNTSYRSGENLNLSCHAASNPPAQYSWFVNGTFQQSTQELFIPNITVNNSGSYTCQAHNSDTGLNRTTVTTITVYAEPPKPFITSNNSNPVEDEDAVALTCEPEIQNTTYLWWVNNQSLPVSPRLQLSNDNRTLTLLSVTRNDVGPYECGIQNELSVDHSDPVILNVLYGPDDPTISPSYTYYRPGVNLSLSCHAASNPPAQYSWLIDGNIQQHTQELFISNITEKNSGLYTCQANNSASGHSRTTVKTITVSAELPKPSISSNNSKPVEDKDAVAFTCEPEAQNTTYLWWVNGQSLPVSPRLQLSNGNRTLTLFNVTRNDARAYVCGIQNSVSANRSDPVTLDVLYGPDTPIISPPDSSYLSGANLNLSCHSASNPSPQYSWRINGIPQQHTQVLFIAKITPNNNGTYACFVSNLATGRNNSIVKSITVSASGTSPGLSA
Procedure: as §1, §2

[3] = biological target: T3, CEACAM6 on transfected HeLa cells (human, UniProt P40199 35-320); assay: flow cytometry titration, HeLa-CEACAM6 transfectants, anti-human IgG4 FITC
T3 construct: whole, on cells; also called HeLa-CEACAM6; HeLa C6
T3 sequence (looked up): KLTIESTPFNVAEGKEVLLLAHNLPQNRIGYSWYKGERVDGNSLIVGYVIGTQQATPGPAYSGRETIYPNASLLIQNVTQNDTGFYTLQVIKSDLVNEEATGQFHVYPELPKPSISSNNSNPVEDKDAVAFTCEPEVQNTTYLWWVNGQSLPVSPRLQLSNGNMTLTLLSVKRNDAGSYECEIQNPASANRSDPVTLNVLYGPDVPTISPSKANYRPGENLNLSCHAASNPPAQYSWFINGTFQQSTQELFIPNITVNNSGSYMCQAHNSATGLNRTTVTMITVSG
Procedure: as §1, §2

Measured: binding result

B1: CP08H03/Vκ8 S29A (antibody, IgG4, V domains shown)
VH: EVQLLESGGGLVQPGGSLRLSCAASGFIFSSHGMSWVRQAPGKGLEWVATISSGGTYTYYPDSVKGRFTISRDNSKNTLYLQMNSLKAEDTAMYYCARHDFDYFPYWFAHWGQGTLVTVSS
VL: EIVLTQSPATLSLSPGERATLSCRANSAVSYMYWYQQKPGQAPRPWIYLTSNRATGVPARFSGSGSGTDYTLTISSLEPEDFAVYYCQQWSSNPPTFGQGTKLEIK
notes: IgG4 (S241P), kappa; also called CP08_H03/Parent VL; CP08_H03/Parental
no binding (tested: 100 ug/ml): all assays above
